Experiment: label from the status in PepcDB records

Row | Sequence | protein production
1 | MSLELPFSNQSIIPAAHNQKDMEKILELDLTYMVMLETHVAQLKALVKYAQAGGKKVLLHADLVNGLKNDDYAIDFLCTEICPDGIISTRGNAIMKAKQHKMLAIQRLFMIDSSAYNKGVALIQKVQPDCIELLPGIIPEQVQKMTQKLHIPVIAGGLIETSEQVNQVIASGAIAVTTSNKHLWEGHHHHHH | not failed
2 | MSLERFAPIKVERCKDIQKELKKAAAENKLQTEDLWFEILKTSIFIKNSAKDDFSEAFGGELQQLEEEEYYEKKELTLYQTHDIKIKSNAYKRFFEVKVDENLSAIEIILDECFIVLDTEEHYQEMFAYIKECLAFQGVVFRHFSQMYENLKTELRKYQKEAQNKRFILYTSSTFIPNIEEQSHFLLEEEYLPTHTIFLSDQEESFVKENYYIAKENQKVACVNCPKQGRDGRNLKGLYIELPKVAHSPTPIGHDKNAFEEREENNALVYYSKALQGVKMEKGRLVSKQNFIFKNGIKSIETPNLLGGLESGLALEIQARDELSDAIDSNLILEASVINIKGNVGKNVILVAKEITIEGQIHPESYVYANKARITNHKGVCYAKELECKYLERAKVYANSVKVEASAGSVVYAKEIALEKLKSDNKLYFSKQCWIDEVDGNGNRFIFYAFGGRENQEELKAAKQKLNALGLKSKKIIAQHQSLNHLVKNHQAIMEKLKNATEEIKRSLMQQESVKDAYSEFMFALKRLKILKAQMLELQKINNECYAKLISIENSFQHASITTKNPFKQENIVIYHRNYPKVSNSTAMLSHNESVNVIYEDHKIKKVPKSAIKG | failed
3 | MSLETRARNSTRPASGLIDWEQARQAALRLSQWEQAPVDNRAFRREQYARMVALSEPLIADYLGVRLPEPVSRIFVFDRREWLEANIVSFSQLFRPIEEMYEKNGGGRGALGVLMNDVSSKLLGVQIGGLLGYLAQRVLGQYDLSLLSAEATGGSLYFVEPNIARVQQQLGLSDEDFRLWITLHEMTHAFEFEAYPWVRTYFRELLEQNFALVSGQMLSSGNSLVDMLMRLLQGIGSGQHWIETVLTPEQRAVFDRIQALMSLIEGYGNHVMNAVGRRLLPSFNQIEQQIAQRQRQRTMLDQMVFRLTGLDLKLAQYQQGEAFVNAVVAARGIQFASRVWERPENLPSMDEIRNPGQWIVRMDREGHHHHHH | not failed
4 | MSLFAELTASVNAVRPGRTRMRNYDMPLIVAASTLLLLGLLMVYSASIALADGPRYASYGRYYFVIRHGLFLTAGLLAAAVVLSVPIRVWQRLAVPLFMFALILLVAVLIPGIGREVNGAHRWIPLGPLNFQPSELMKLAALLYAADYTVRKQEHMQAFSRGFLPMACALGGVGMLLLLEPDLGAFMVIVAIAIGILFLGGINGKYFSSLLAVLVGTFLMLIWVSPWRRARLFAYLDPWNEANAYGSAYQLSHSLIALGRGEWFGVGLGASVEKLHYLPEAHTDFLMAVVGEELGFAGVMLVITLFAIIVYRGFDIGRQAIAMERTFAGLVAHGVAMWVGVQAFINMGVCLGLLPTKGLTLPLMSYGGSGIVMNLCALAMLIRVDVENRVMMRGGRV | failed
5 | MSLFIYEVLIRLFMTFILSLLLTPLVKLLAFRIGAYDAPGERRINTKNMPTAGGLAIYIAFASSCLLIFRSIIPQDYIWPIILAGGMVVLTGLIDDIKEITPMKKTIGILLAALVIYFVAGIRIDFVTLPVVGMIDLRWFSLPLTLLWILAITNAVNLIDGLDGLASGVSIIGLTTIGITGYFFLHAKTVYIPIVIFILVASIAGFFPYNFYPAKIFLGDTGALFLGFMIAVMSLQGLKNATFITVITPMVILGVPITDTVYAIIRRLLNKKPISSADKMHLHHRLLSLGFTHKGAVMTIYALALVFSFVSLLFSYSSTVASILLIVFCLIGLELFIELIGLVGEGHQPLMYLLRILGNREYRQEQMKKRLGKHSKRK | failed
6 | MSLFKRSVVSEITSHAGVVFSTLVVVWLSVLLVRLLGEAAGGSIGADVVLGLAAFSTITALPTILAVSLFIAVLTTVTRNYRESEMVVWFASGLSLADWLRPVARVAVPIAMLVAALTLVASPWAYRQIGEYRERFEQRSDLSKVTAGQFAESGRGDRVFFAEDPVRPGDELGAVFARSIDPEWLSVLTASNARSETLPNGDRFLVLGEGHRYDLKPGTPEIRLVNFDQYGVRLESKAGEDPMAEARAAAERSSKARSTMQLVQDNTDSSWSQIMWRVAMPLAALNLALLAIPLGAVNPRLGRSGDLLIAGLVGLLYMNMINLSRAWISSGKISFSIGVWAVHAVVALLAAYLLMRRLRVKAPRNAGRGA | failed
7 | MSLGRFVRHALITAGTKGLGKQVTEKLLAKGYSVTVTYHSDTTAMETMKETYKDVEERLQFVQADVTKKEDLHKIVEEAMSHFGKIDFLINNAGPYVFERKKLVDYEEDEWNEMIQGNLTAVFHLLKLVVPVMRKQNFGRIINYGFQGADSAPGWIYRSAFAAAKVGLVSLTKTVAYEEAEYGITANMVCPGDIIGEMKEATIQEARQLKEHNTPIGRSGTGEDIARTISFLCEDDSDMITGTIIEVTGAVDVIHREGHHHHHH | not failed
8 | MSLHGKLIQFHKFGNPKDVLQVEYKNIEPLKDNEVFVRMLVRPINPSDLIPITGAYAHRIPLPNIPGYEGVGIVENVGAFVSRELIGKRVLPLRGEGTWQEYVKTSADFVVPIPDSIDDFTAAQMYINPLTAWVTCTETLNLQRNDVLLVNACGSAIGHLFAQLSQILNFRLIAVTRNNKHTEELLRLGAAYVIDTSTAPLYETVMELTNGIGADAAIDSIGGPDGNELAFSLRPNGHFLTIGLLSGIQVNWAEIVTKAKVHANIFHLRHWNDEVSPYKWQETFRHLIRLVENEQLRFMKVHSTYELADVKAAVDVVQSAEKTKGKVFLTSYEGHHHHHH | not failed
9 | MSLIILTRDDEPRIFTPDSDAASPALHSTSPLPDPASASPLHREEKILPKVCNIVSCLSFSLPASPTDSGLASPTIITREGQQFWAKCLIWKYQLYLHGLHKKSDGRRDKQISASPST | failed
10 | MSLILLGALSLASSTFAQTWIWYPGDYEIWLGNQMNNRRTERGAFFPPFWKTDSHYVVVEFSKVLNLSEPEEVFIAAEGTYNVKLDGKLQFGMPETLLLPAGKHSLNIKVWNQATPPTIYVKGKTVNSDSSWRVTYEDKEWIDESGKASDTSATIYMDAGCWNFDGATQRPSQFSLMREPQQPVAKTEQPEGGILYDFGKETFGFITLKNLSGKGKIDLYYGESPEEAKDKAYCETLDKLLLEPGQITDLAIRSTSPLHHSDNEYTLENSKAFRYVYITHEPEVQIGEVSMQYEYLPEEYRGNFRCNDEELNCIWEVGAYTMHLTTREFFIDGIKRDRWVWSGDAIQSYLMNYYLFFDSESVKRTIWLLRGKDPVTSHSNTIMDYTFYWFLSVYDYYMYSGDRHFVNQLYPRMQTMMDYVLGRTNKNGMVEGMSGDWVFVDWADGYLDKKGELSFEQVLFCRSLETMALCADLVGDKDGQQKYEKLASALKAKLEPTFWNNQKQAFVHNCVDGRQSDAVTRYANMFSVFFDYLNADKQQAIKQSVLLNDEILKITTPYMRFYELEALCALGEQETVMKEMKAYWGGMLKAGATSFWEKYNPEESGTQHLAMYGRPYGKSLCHAWGASPIYLLGKYYLGVKPTKEGYKEFAVSPVLGGLKWMEGTVPTPNGDIHVYMDNKTIKVKATEGKGYLTIQSRRQPKANMGTVEKVSEGVWRLWIDSPEERIVTYRLEGHHHHHH | not failed
11 | MSLILYDYFRSTACYRVRIALNLKKIAYEKIEVHLVNNGGEQHSLQYHQINPQELVPSLDINGQILSQSMAIIDYLEEIHPEMPLLPKDPFMKATLKSMALIVACDMHPLNNLRVLNRLKEQFNANEEQVLEWYHHWLKTGFDAFEEKLGALERDKPVCFGSEVGLADVCLIPQVYNAHRFHFDMASYPIINEINEYCLTLPAFHDAAPEAISSEGHHHHHH | not failed
12 | MSLIMITAEMVPPDLLIKRLAIYLKENVKTVDPPEWALLAKTASFKERVPDNAEDWWYIRAASLLRKLYVNSIIGIEKTRTIYGGRKRRGTRPEKFVKAPGHVNRLIFQQLEKAGLVQKIKNKGRSLSPKGRSLLDKLALEIFKELAENNTSLKVYLELEHHHHHH | not failed

From a protein production outcome set (Wang et al. 2014)
